The source of these data is article doi:10.1101/2024.11.13.623448.

Assay [1] has as its target nucleosome core particle: Cse4, H2A, H2B, H4 histone octamer wrapped with Widom 601 DNA (S. cerevisiae | K. lactis) (UniProt P36012). Nature of the assay: optical trap bead-microtubule binding assay; His6-NCPs (40 nM) held on polystyrene beads by anti-His6 antibody; 10 nM OA or 20 nM Mif2, 10 nM 2D-MIND, 10 nM Ndc80c, 5 nM Dam1c free in solution; bead brought to the dynamic plus end of a surface-anchored microtubule and released from the trap; 1x BRB80, 1 mM GTP, 16 uM tubulin, room temperature.

Assay [2] has as its target nucleosome core particle: Cse4, H2A, H2B, H4 histone octamer wrapped with chimeric centromeric DNA (CCEN) (S. cerevisiae | K. lactis) (UniProt P36012). Described as above.

“Mif2-linker-(27-392)MBP (from UniProt P35201 1-549) (natural protein)”: the percent of beads that bound microtubules in assay [1] and in assay [2] was greater than 78% each time.
